Measurements taken from PMC10127515, “Biocatalytic Synthesis of Homochiral 2-Hydroxy-4-butyrolactone Derivatives by Tandem Aldol Addition and Carbonyl Reduction” (ACS Catalysis, 2023).

Columns and labels:
[1] = target: T1, KPREcoli (ketopantoate reductase from E. coli) (Escherichia coli, UniProt P0A9J4); assay: NADPH oxidation at […] nm, continuous; assay type: biochemical; conditions: NADPH 0.16 mM; 50 mM Tris-HCl pH 8.0; 30 °C; substrate inhibition
T1 construct: gene panE; recombinant wild type; tags and purification only in the supplement
T1 sequence (P0A9J4 1-303): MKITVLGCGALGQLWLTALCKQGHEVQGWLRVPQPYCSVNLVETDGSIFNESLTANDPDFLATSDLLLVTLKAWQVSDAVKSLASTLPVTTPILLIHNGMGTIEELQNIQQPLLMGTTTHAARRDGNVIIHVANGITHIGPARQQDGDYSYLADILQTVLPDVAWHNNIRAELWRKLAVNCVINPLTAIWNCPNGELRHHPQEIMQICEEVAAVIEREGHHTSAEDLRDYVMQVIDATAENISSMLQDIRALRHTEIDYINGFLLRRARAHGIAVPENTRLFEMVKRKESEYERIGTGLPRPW

purified protein [2] = substrate: C[C@@H](CO)C(=O)C(=O)O; assay: purified protein; assay type: biochemical, Pseudomonas syringae group genomosp. 3; conditions: NADPH 0.16 mM, 50 mM Tris-HCl pH 8.0, 30 °C
purified protein [3] = substrate: CC[C@@H](CO)C(=O)C(=O)O; assay: purified protein; assay type: biochemical, Pseudomonas syringae group genomosp. 3; conditions: NADPH 0.16 mM, 50 mM Tris-HCl pH 8.0, 30 °C
purified protein [4] = substrate: O=C(O)C(=O)C[C@@H](O)CO; assay: purified protein; assay type: biochemical, Pseudomonas syringae group genomosp. 3; conditions: NADPH 0.16 mM, 50 mM Tris-HCl pH 8.0, 30 °C
purified protein [5] = substrate: O=C(O)C(=O)CCO; assay: purified protein; assay type: biochemical, Pseudomonas syringae group genomosp. 3; conditions: NADPH 0.16 mM, 50 mM Tris-HCl pH 8.0, 30 °C
purified protein [6] = substrate: C[C@H](CO)C(=O)C(=O)O; assay: purified protein; assay type: biochemical, Pseudomonas syringae group genomosp. 3; conditions: NADPH 0.16 mM, 50 mM Tris-HCl pH 8.0, 30 °C
purified protein [7] = substrate: C[C@@H](CO)C(=O)C(=O)O; assay: purified protein; assay type: biochemical, Escherichia coli; conditions: NADPH 0.16 mM, 50 mM Tris-HCl pH 8.0, 30 °C
purified protein [8] = substrate: CC[C@@H](CO)C(=O)C(=O)O; assay: purified protein; assay type: biochemical, Escherichia coli; conditions: NADPH 0.16 mM, 50 mM Tris-HCl pH 8.0, 30 °C
purified protein [9] = substrate: C=CC[C@@H](CO)C(=O)C(=O)O; assay: purified protein; assay type: biochemical, Escherichia coli; conditions: NADPH 0.16 mM, 50 mM Tris-HCl pH 8.0, 30 °C
purified protein [10] = substrate: C=CC[C@H](CO)C(=O)C(=O)O; assay: purified protein; assay type: biochemical, Escherichia coli; conditions: NADPH 0.16 mM, 50 mM Tris-HCl pH 8.0, 30 °C
purified protein [11] = substrate: CC(C)(CO)C(=O)C(=O)O; assay: purified protein; assay type: biochemical, Escherichia coli; conditions: NADPH 0.16 mM, 50 mM Tris-HCl pH 8.0, 30 °C
purified protein [12] = substrate: O=C(O)C(=O)C1(CO)CCC1; assay: purified protein; assay type: biochemical, Escherichia coli; conditions: NADPH 0.16 mM, 50 mM Tris-HCl pH 8.0, 30 °C
purified protein [13] = substrate: O=C(O)C(=O)CCO; assay: purified protein; assay type: biochemical, Escherichia coli; conditions: NADPH 0.16 mM, 50 mM Tris-HCl pH 8.0, 30 °C
purified protein [14] = substrate: CC[C@H](CO)C(=O)C(=O)O; assay: purified protein; assay type: biochemical, Escherichia coli; conditions: NADPH 0.16 mM, 50 mM Tris-HCl pH 8.0, 30 °C
purified protein [15] = substrate: O=C(O)C(=O)C1(CO)CCCC1; assay: purified protein; assay type: biochemical, Escherichia coli; conditions: NADPH 0.16 mM, 50 mM Tris-HCl pH 8.0, 30 °C
purified protein [16] = substrate: CC(C)[C@@H](CO)C(=O)C(=O)O; assay: purified protein; assay type: biochemical, Escherichia coli; conditions: NADPH 0.16 mM, 50 mM Tris-HCl pH 8.0, 30 °C
purified protein [17] = substrate: COCC[C@H](CO)C(=O)C(=O)O; assay: purified protein; assay type: biochemical, Escherichia coli; conditions: NADPH 0.16 mM, 50 mM Tris-HCl pH 8.0, 30 °C
purified protein [18] = substrate: C[C@H](CO)C(=O)C(=O)O; assay: purified protein; assay type: biochemical, Escherichia coli; conditions: NADPH 0.16 mM, 50 mM Tris-HCl pH 8.0, 30 °C

`CC(C)(CO)C(=O)C(=O)O` [3j, ketopantoate] was tested, and the “KPREcoli ^b / ksi^app” value [1] was 3.9 ± 1.3 mM.

For `O=C(O)C(=O)C1(CO)CCCC1` [3l], the “KPREcoli ^b / ksi^app” value [1] was 28 ± 4 mM.

For `O=C(O)C(=O)C1(CO)CCC1` [3k], the “KPREcoli ^b / ksi^app” value [1] was 6.6 ± 1.5 mM.

B1: DpkAPsyrin (Δ1-piperidine-2-carboxylate/Δ1-pyrroline-2-carboxylate reductase) (Pseudomonas syringae pv. tomato) (protein)
chain: MSASHADQPTQTVSYPQLIDLLRRIFVVHGTSPEVADVLAENCASAQRDGSHSHGIFRIPGYLSSLASGWVDGKAVPVVEDVGAAFVRVDACNGFAQPALAAARSLLIDKARSAGVAILAIRGSHHFAALWPDVEPFAEQGLVALSMVNSMTCVVPHGARQPLFGTNPIAFGAPRAGGEPIVFDLATSAIAHGDVQIAAREGRLLPAGMGVDRDGLPTQEPRAILDGGALLPFGGHKGSALSMMVELLAAGLTGGNFSFEFDWSKHPGAQTPWTGQLLIVIDPDKGAGQHFAQRSEELVRQLHGVGQERLPGDRRYLERARSMAHGIVIAQADLERLQELAGH
notes: recombinant wild type; tags and purification only in the supplement
Work on B1 yielded a Km (purified protein [2]) of 19 ± 4 mM, a kcat (purified protein [2]) of 0.0183 ± 0.0017 s⁻¹ and a kcat/Km (purified protein [2]) of 0.967 M⁻¹ s⁻¹. It also gave a Km (purified protein [3]) of 14 ± 2 mM, a kcat (purified protein [3]) of 0.00383 ± 0.00017 s⁻¹ and a kcat/Km (purified protein [3]) of 0.267 M⁻¹ s⁻¹. For the same molecule, the Km (purified protein [4]) was 11 ± 1 mM, the kcat (purified protein [4]) was 0.05 ± 0.00033 s⁻¹ and the kcat/Km (purified protein [4]) was 4.67 M⁻¹ s⁻¹. It also gave a Km (purified protein [5]) of 33 ± 7 mM, a kcat (purified protein [5]) of 0.0283 ± 0.0033 s⁻¹ and a kcat/Km (purified protein [5]) of 0.867 M⁻¹ s⁻¹. It also gave a Km (purified protein [6]) of 7.5 ± 1.9 mM and a kcat (purified protein [6]) of 4e-05 ± 3.3e-06 s⁻¹.

B2: KPREcoli (ketopantoate reductase from E. coli) (Escherichia coli K-12) (protein)
chain: T1 sequence (P0A9J4 1-303)
notes: as for B1
Molecule B2 has a Km (purified protein [7]) of 12.9 ± 1.4 mM, a kcat (purified protein [7]) of 5.8 ± 0.25 s⁻¹ and a kcat/Km (purified protein [7]) of 450 M⁻¹ s⁻¹. It also gave a Km (purified protein [8]) of 3.0 ± 0.5 mM, a kcat (purified protein [8]) of 15.4 ± 0.617 s⁻¹ and a kcat/Km (purified protein [8]) of 5230 M⁻¹ s⁻¹. For the same molecule, the Km (purified protein [9]) was 9.5 ± 1.7 mM, the kcat (purified protein [9]) was 1.48 ± 0.1 s⁻¹ and the kcat/Km (purified protein [9]) was 157 M⁻¹ s⁻¹. For the same molecule, the Km (purified protein [10]) was 9.5 ± 1.5 mM, the kcat (purified protein [10]) was 1.5 ± 0.083 s⁻¹ and the kcat/Km (purified protein [10]) was 157 M⁻¹ s⁻¹. The Km (purified protein [11]) was 0.4 ± 0.2 mM, the kcat (purified protein [11]) was 74.28 ± 13.6 s⁻¹ and the kcat/Km (purified protein [11]) was 179000 ± 76500 M⁻¹ s⁻¹. The Km (purified protein [12]) was 1.5 ± 0.5 mM, the kcat (purified protein [12]) was 113.2 ± 17.03 s⁻¹ and the kcat/Km (purified protein [12]) was 73800 M⁻¹ s⁻¹. It also gave a Km (purified protein [13]) of 4.9 ± 1.2 mM, a kcat (purified protein [13]) of 0.118 ± 0.0083 s⁻¹ and a kcat/Km (purified protein [13]) of 25 M⁻¹ s⁻¹. It also gave a Km (purified protein [14]) of 7 ± 1 mM, a kcat (purified protein [14]) of 11.7 ± 0.567 s⁻¹ and a kcat/Km (purified protein [14]) of 1770 M⁻¹ s⁻¹. The Km (purified protein [15]) was 0.2 ± 0.1 mM, the kcat (purified protein [15]) was 19.43 ± 1.12 s⁻¹ and the kcat/Km (purified protein [15]) was 92800 M⁻¹ s⁻¹. The Km (purified protein [16]) was 13 ± 2 mM, the kcat (purified protein [16]) was 17.02 ± 1.15 s⁻¹ and the kcat/Km (purified protein [16]) was 1280 M⁻¹ s⁻¹. It also gave a Km (purified protein [17]) of 18 ± 3 mM, a kcat (purified protein [17]) of 0.0983 ± 0.0083 s⁻¹ and a kcat/Km (purified protein [17]) of 5.67 M⁻¹ s⁻¹. The Km (purified protein [18]) was 4.8 ± 0.4 mM, the kcat (purified protein [18]) was 89.17 ± 2.3 s⁻¹ and the kcat/Km (purified protein [18]) was 18500 M⁻¹ s⁻¹.
